# Earlier results in PMC4479967 (Journal of molecular neuroscience : MN, 2015).
# B1: CCK: cholecystokinin (peptide, UniProt P06307 21-115, looked up)
# Cholecystokinin: QPVPPADPAGSGLQRAEEAPRRQLRVSQRTDGESRAHLGALLARYIQQARKAPSGRMSIVKNLQNLDPSHRISDRDYMGWMDFGRRSAEEYEYPS
# Conditions: Src-dependent; ref Daulhac et al., 1999
molecule,measurement,value
B1,Effect on ERK-1 and p85/p110-PI-3-K,causes activation
